Here are results for three molecules from patent publication US20230312754A1 (published 2023).

In general, Kd refers to a measure of binding affinity in units of concentration. Higher therefore signals lower affinity. In general, koff refers to the first-order rate constant of dissociation. A higher koff goes with a short-lived complex. The term kon denotes a measure of how fast the partners come together. Read a high kon as fast association.

In assay [1] the target is T1, human CEACAM5 (R&D Systems #4128-CM-050) (human, UniProt P06731 35-685).
T1 construct: Bought protein; also called hCEACAM-5; Human CEACAM5-His
T1 sequence (looked up): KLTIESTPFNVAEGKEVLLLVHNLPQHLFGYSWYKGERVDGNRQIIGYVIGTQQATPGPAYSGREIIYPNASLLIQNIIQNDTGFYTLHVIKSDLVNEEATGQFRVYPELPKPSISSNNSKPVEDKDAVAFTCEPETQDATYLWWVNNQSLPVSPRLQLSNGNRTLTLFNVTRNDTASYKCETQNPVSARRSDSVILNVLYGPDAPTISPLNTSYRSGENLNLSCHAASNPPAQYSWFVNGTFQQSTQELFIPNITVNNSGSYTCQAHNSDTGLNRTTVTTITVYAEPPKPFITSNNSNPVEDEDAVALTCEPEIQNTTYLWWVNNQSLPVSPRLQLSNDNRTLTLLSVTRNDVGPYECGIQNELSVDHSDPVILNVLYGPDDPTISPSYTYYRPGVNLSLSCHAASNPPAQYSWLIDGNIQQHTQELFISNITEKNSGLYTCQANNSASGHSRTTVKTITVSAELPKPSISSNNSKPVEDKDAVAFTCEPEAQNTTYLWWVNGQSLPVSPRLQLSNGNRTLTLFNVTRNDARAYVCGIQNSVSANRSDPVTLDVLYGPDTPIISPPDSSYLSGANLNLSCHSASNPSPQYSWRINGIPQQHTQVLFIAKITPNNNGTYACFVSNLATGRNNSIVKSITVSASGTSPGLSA
Put plainly: dual target ELISA: coated hCEACAM-5, detection with biotinylated hCD40-muIg. Here is the method:
96-well plates were coated with 0.5 μg/mL antigen, hCEACAM-1 (2244-CM-050, R&D Systems), hCEACAM-5 (4128-CM-050, R&D Systems), hCEACAM-6 (3934-CM-050, R&D Systems) or CEACAM-8 (9639-CM-050, R&D Systems) in PBS over night at 4° C. After washing in PBS/0.05% Tween 20 (PBST), the plates were blocked with PBST, 2% BSA for at least 30 minutes at room temperature before a second round of washing. RUBY bsAbs, diluted in PBST, 0.5% BSA, were then added and allowed to bind for at least 1 hour at room temperature. […] Finally, a final round of washing was performed and bound complexes detected using SuperSignal Pico Luminescent as substrate and luminescence signals were measured using Fluostar Optima.

Assay [2] concerns the target T2, biotinylated human CD40-mouse Fc (Ancell #504-030) (human, UniProt P25942 21-193, biotinylated).
T2 construct: Bought protein; also called biotinylated hCD40-muIg; CD40mFc-biotin; not shown: mouse Fc (muIg) part
Put plainly: Octet (BLI), bsAb in solution, captured CD40mFc-biotin, 1:1 fit. How it is done: Kinetic measurements were performed in the Octet RED96 platform using several different setups. […] Monomeric human CD40-His-Avi tag (Acro Biosystems #CD0-H5228), monomeric Human CEACAM5-His (R&D Systems #4128-CM-050) or monomeric Cynomolgus CEACAM5-His (Sino Biological #90891-C08H) were ½ serially diluted in 1× kinetic buffer (Sartorius) starting at 500 nM or 100 nM. Bispecific antibodies were 2 serially diluted starting at 50 nM, 25 nM or 10 nM or 1/1.5 serially diluted starting at 15 nM or 5 nM. Binding kinetics was studied in 1× kinetic buffer where association was allowed for 100 sec, 300 sec or 600 sec followed by dissociation for 100 sec, 300 sec or 3600 sec. Sensor tips were regenerated with 10 mM Glycine pH 1.7. Data generated were referenced by subtracting blank or parallel buffer blank, the baseline was aligned to the y-axis, inter-step correction by alignment against dissociation was performed and the data was smoothed by Savitzky-Golay filter in the data analysis software (v9.0.0.14). The processed data was fitted using a 1:1 Langmuir binding model with R² or X² as a measurement of fitting accuracy.
TABLE 12 Summary of kinetic profiles measured in Octet. Bispecific antibodies in solution (25-0.8 nM, 10-2 or 5-0.7 nM.) interacting with captured CD40mFc-biotin. Association was measured for 300 sec or 600 sec and dissociation was measured for 300 sec or 3600 sec
On the technique in general: Biolayer interferometry detects binding as a change in optical thickness at a sensor tip.

T2 sequence (P25942 21-193 limits assumed): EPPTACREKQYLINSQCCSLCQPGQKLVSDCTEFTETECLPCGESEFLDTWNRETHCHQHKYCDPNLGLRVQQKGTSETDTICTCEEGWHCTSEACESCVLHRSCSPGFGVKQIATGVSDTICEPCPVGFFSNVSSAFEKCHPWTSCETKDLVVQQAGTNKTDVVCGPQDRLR

B1: Multi40 (bispecific antibody)
heavy 1: not shown
light: DIQMTQSPSSLSASVGDRVTITCRASQSISSYLNWYQEKPGKAPKLLIYAASSLQSGVPSRFSGSGSGTDFTLTISSLQPEDFATYYCQQSSHGPLLTFGQGTKLEIKRTVAAPSVFIFPPSDEQLKSGTASVVCYLNNFYPREAKVQWKVDNALQSGNSQESVTEQDSKDSTYSLWSTLTLSKADYEKHKVYACEVTHQGLSSPVTKSFNRGEC
heavy 2: EVQLLESGGGLVQPGGSLRLSCAASGFTFSTYGMHWVREAPGKGLEWLSYISGGSSYIFYADSVKGRFTISRDNSKNTLYLQMNSLRAEDTAVYYCARILRGGSGMDLWGQGTLVTVSSASTKGPSVFPLAPSSKSTSGGTAALGCLVKDYFPEPVTVSWNSGALTSGVHTFPAVLQSSGLYSLTSVVEVPSSSLGTQTYICNVNHKPSNTKVDKKVEPKSC
notes: CEACAM5xCD40, Optimized RUBY format; copies: 2 + 2 + 2
As to B1, the binding result in assay [1] is given as “binds”.

B2: AC_05293 (bispecific antibody, V domains shown)
VH 1: EVQLLESGGGLVQPGGSLRLSCAASGFTFSSYAMSWVRQAPGKGLEWVSGIGSYGGGTYYADSVKGRFTISRDNSKNTLYLQMNSLRAEDTAVYYCARYVNFGMDYWGQGTLVTVSS
VL 1: DIQMTQSPSSLSASVGDRVTITCRASQSISSYLNWYQQKPGKAPKLLIYAASSLQSGVPSRFSGSGSGTDFTLTISSLQPEDFATYYCQQYGRNPPTFGQGTKLEIK
VL 2: ELVMTQSPSSLTVTAGEKVTMSCKSSQSLLNSGNQKNYLTWYQQKPGQPPKLLIYWASTRESGVPDRFTGSGSGTDFTLTISSVQAEDLAVYYCQNDYSYPLTFGAGTKLEIK
VH 2: EVQLLEQSGAELVRPGTSVKISCKASGYAFTNYWLGWVKQRPGHGLEWIGDIFPGSGNIHYNEKFKGKATLTADKSSSTAYMQLSSLTFEDSAVYFCARLRNWDEPMDYWGQGTTVTVSS
As to B2, in assay [2], the affinity, expressed as Kd, was 76 nM; the koff stood at 0.00062 s⁻¹; the on-rate (kon) stood at 8300 M⁻¹ s⁻¹.

B3: AC_05300 (bispecific antibody, V domains shown)
VH 1: B2 VH 2
VL 1: B2 VL 2
VL 2: B2 VL 1
VH 2: B2 VH 1
Consider B3, for which, in assay [2], the dissociation constant (Kd) is 8.5 nM, the koff was 0.0046 s⁻¹ and the kon came to 540000 M⁻¹ s⁻¹.
